Assay results from IntAct's records for PubMed 32296183.

B1: Golgi SNAP receptor complex member 2 (Homo sapiens), O14653 (parent)
chain: MDPLFQQTHKQVHEIQSCMGRLETADKQSVHIVENEIQASIDQIFSRLERLEILSSKEPPNKRQNARLRVDQLKYDVQHLQTALRNFQHRRHAREQQERQREELLSRTFTTNDSDTTIPMDESLQFNSSLQKVHNGMDDLILDGHNILDGLRTQRLTLKGTQKKILDIANMLGLSNTVMRLIEKRAFQDKYFMIGGMLLTCVVMFLVVQYLT
partner: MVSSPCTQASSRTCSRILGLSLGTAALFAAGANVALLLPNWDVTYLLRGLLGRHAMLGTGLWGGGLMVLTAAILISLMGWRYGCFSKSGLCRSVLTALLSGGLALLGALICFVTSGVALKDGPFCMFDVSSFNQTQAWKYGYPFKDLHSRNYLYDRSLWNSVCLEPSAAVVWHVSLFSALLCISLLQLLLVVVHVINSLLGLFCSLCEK
B2: Catenin alpha-3 (Homo sapiens), Q9UI47-2 (parent)
chain: MSAETPITLNIDPQDLQVQTFTVEKLLEPLIIQVTTLVNCPQNPSSRKKGRSKRASVLLASVEEATWNLLDKGEKIAQEATVLKDELTASLEEVRKESEALKVSAERFTDDPCFLPKREAVVQAARALLAAVTRLLILADMIDVMCLLQHVSAFQRTFESLKNVANKSDLQKTYQKLGKELENLDYLAFKRQQDLKSPNQRDEIAGARASLKENSPLLHSICSACLEHSDVASLKASKDTVCEEIQNALNVISNASQGIQNMTTPPEPQAATLGSALDELENLIVLNPLTVTEEEIRPSLEKRLEAIISGAALLADSSCTRDLHRERIIAECNAIRQALQDLLSEYMNNAGKKERSNTLNIALDNMCKKTRDLRRQLRKAIIDHVSDSFLDTTVPLLVLIEAAKNGREKEIKEYAAIFHEHTSRLVEVANLACSMSTNEDGIKIVKIAANHLETLCPQIINAALALAARPKSQAVKNTMEMYKRTWENHIHVLTEAVDDITSIDDFLAVSGMFLFF
partner: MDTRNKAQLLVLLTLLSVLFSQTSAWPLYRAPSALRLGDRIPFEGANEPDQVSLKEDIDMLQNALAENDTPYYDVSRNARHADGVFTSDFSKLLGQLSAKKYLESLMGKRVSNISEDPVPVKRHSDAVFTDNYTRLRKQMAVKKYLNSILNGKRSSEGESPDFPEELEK
B3: Golgi SNAP receptor complex member 2 (Homo sapiens), O14653 (parent)
chain: B1 chain
partner: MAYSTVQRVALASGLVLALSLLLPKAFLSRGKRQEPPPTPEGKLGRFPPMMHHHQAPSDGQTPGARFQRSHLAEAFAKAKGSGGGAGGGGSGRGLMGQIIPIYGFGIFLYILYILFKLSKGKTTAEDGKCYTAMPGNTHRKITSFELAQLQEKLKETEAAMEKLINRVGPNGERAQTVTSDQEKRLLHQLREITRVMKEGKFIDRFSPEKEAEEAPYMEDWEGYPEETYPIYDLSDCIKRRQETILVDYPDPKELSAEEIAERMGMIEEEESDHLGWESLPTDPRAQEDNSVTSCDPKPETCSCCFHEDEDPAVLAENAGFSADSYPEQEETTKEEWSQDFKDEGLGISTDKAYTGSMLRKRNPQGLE
B4: Golgi SNAP receptor complex member 2 (Homo sapiens), O14653 (parent)
chain: B1 chain
partner: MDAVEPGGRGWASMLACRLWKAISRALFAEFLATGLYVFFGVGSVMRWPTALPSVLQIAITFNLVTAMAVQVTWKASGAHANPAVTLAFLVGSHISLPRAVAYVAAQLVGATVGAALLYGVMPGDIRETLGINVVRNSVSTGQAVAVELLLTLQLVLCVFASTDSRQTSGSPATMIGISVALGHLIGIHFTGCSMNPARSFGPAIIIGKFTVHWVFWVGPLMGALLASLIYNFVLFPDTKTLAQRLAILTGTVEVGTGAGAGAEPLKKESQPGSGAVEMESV
B5: Golgi SNAP receptor complex member 2 (Homo sapiens), O14653 (parent)
chain: B1 chain
partner: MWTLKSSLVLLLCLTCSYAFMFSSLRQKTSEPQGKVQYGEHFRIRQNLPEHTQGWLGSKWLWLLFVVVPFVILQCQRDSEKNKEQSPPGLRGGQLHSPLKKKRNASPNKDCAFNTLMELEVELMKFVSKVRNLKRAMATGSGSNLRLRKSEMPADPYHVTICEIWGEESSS
B6: Very-long-chain enoyl-CoA reductase (Homo sapiens), Q9NZ01 (parent)
chain: MKHYEVEILDAKTREKLCFLDKVEPHATIAEIKNLFTKTHPQWYPARQSLRLDPKGKSLKDEDVLQKLPVGTTATLYFRDLGAQISWVTVFLTEYAGPLFIYLLFYFRVPFIYGHKYDFTSSRHTVVHLACICHSFHYIKRLLETLFVHRFSHGTMPLRNIFKNCTYYWGFAAWMAYYINHPLYTPPTYGAQQVKLALAIFVICQLGNFSIHMALRDLRPAGSKTRKIPYPTKNPFTWLFLLVSCPNYTYEVGSWIGFAIMTQCLPVALFSLVGFTQMTIWAKGKHRSYLKEFRDYPPLRMPIIPFLL
partner: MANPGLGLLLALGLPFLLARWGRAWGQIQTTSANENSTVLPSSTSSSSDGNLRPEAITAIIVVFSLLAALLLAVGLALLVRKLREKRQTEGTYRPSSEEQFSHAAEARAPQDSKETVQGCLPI
B7: Catenin alpha-3 (Homo sapiens), Q9UI47-2 (parent)
chain: B2 chain
partner: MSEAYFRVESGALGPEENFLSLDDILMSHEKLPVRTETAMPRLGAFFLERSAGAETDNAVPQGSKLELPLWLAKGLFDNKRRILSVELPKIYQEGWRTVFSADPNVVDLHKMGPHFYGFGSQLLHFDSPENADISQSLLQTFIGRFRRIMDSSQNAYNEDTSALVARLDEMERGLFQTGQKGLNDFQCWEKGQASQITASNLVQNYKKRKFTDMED
B8: Very-long-chain enoyl-CoA reductase (Homo sapiens), Q9NZ01 (parent)
chain: B6 chain
partner: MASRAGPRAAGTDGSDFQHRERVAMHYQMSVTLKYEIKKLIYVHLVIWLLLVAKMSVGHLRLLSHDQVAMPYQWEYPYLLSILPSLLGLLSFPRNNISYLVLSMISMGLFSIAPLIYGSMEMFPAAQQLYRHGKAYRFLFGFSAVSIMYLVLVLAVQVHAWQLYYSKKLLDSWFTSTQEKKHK
B9: Transmembrane protein 43 (Homo sapiens), Q9BTV4 (parent)
chain: MAANYSSTSTRREHVKVKTSSQPGFLERLSETSGGMFVGLMAFLLSFYLIFTNEGRALKTATSLAEGLSLVVSPDSIHSVAPENEGRLVHIIGALRTSKLLSDPNYGVHLPAVKLRRHVEMYQWVETEESREYTEDGQVKKETRYSYNTEWRSEIINSKNFDREIGHKNPSAMAVESFMATAPFVQIGRFFLSSGLIDKVDNFKSLSLSKLEDPHVDIIRRGDFFYHSENPKYPEVGDLRVSFSYAGLSGDDPDLGPAHVVTVIARQRGDQLVPFSTKSGDTLLLLHHGDFSAEEVFHRELRSNSMKTWGLRAAGWMAMFMGLNLMTRILYTLVDWFPVFRDLVNIGLKAFAFCVATSLTLLTVAAGWLFYRPLWALLIAGLALVPILVARTRVPAKKLE
partner: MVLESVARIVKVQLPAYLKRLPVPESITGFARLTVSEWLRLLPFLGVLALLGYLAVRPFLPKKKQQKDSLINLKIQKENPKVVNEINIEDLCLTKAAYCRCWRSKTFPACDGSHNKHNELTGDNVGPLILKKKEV

Variants of: B1
Settings: with TM4SF19, Q96DZ7

Row | Variant | effect of a mutation on the interaction
1 | G144W | with no effect

Variants of: B2
Settings: with VIP

Row | Variant | effect of a mutation on the interaction
2 | V94D | disrupting interaction strength

Variants of: B3
Settings: with RIC3, Q7Z5B4-5

Row | Variant | effect of a mutation on the interaction
3 | G144W | disrupting interaction strength

Variants of: B4
Settings: with aqp6_human AQP6, Q13520

Row | Variant | effect of a mutation on the interaction
4 | G144W | with no effect

Variants of: B5
Settings: with FAM209A

Row | Variant | effect of a mutation on the interaction
5 | G144W | with no effect

Variants of: B6
Settings: with CRB3, Q9BUF7-2

Row | Variant | effect of a mutation on the interaction
6 | P182L | disrupting interaction strength

Variants of: B7
Settings: with psf3_human GINS3, Q9BRX5

Row | Variant | effect of a mutation on the interaction
7 | V94D | disrupting interaction strength

Variants of: B8
Settings: with jagn1_human JAGN1, Q8N5M9

Row | Variant | effect of a mutation on the interaction
8 | P182L | with no effect

Variants of: B9
Settings: with cisd2_human CISD2, Q8N5K1

Row | Variant | effect of a mutation on the interaction
9 | I91V | with no effect
10 | E85K | disrupting interaction strength
11 | Y371H | with no effect
12 | R28W | with no effect
13 | E142K | disrupting interaction strength
